Data on 2 substances can be found in PMC12751049.

Test [1] concerns the target Complement 1q binding protein (C1qBP), recombinant His-tagged, residues 75-282 (human). In words: SEC-MALS; Superdex 200 10/300 GL, 20 mM Na2HPO4, 20 mM NaCl, pH 6.5; proteins at 2-4 mg/ml alone or CypD:C1qBP mixture at 2:1 molar ratio; eluted complex checked by SDS-PAGE.
For test [2] the target is unchanged. In words: dynamic and static light scattering (DLS/SLS); C1qBP at 0.8 mg/ml, 20 mM HEPES pH 7.4, 37°C, with 2.5 mM CaCl2; trimer to dimer of trimers.

As to “Complement 1q binding protein (C1qBP), recombinant His-tagged, residues 75-282 (natural protein)”, the stoichiometry N in test [1] was found to be 3; in test [2], 6.
For the substance “Cyclophilin D (CypD), recombinant, residues 44-207 (enzyme)”, in test [1], the stoichiometry N (CypD per C1qBP trimer) was found to be 1.
